Laboratory results reported in the supplement of paper PMC9170038.

Legend:
MS2 coat protein [1] = assay: apparent KD of MS2 coat protein; designed switch direction (-1 OFF switch, 1 ON switch): 1; higher = weaker reporter binding
Procedure, shortened: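 RNA switches sharing common flanks were transcribed by stalled E. coli RNA polymerase on Illumina chips. A doubling series of SNAP-549-labelled MS2 coat protein, from 0.7 or 1.5 nM to 3 µM, was applied in Tris-HCl pH 7.5 buffer with KCl, MgCl2, BSA, DTT, tRNA and Tween-20. Each step lasted 0.8–1.5 h at the bottom of the series and 10–20 min at the top. Normalised cluster fluorescence was curve-fitted, giving apparent KD as the per-design median over clusters.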

MS2 coat protein [2] = assay: apparent KD of MS2 coat protein; higher = weaker reporter binding; conditions: Eterna round: R107
Procedure, shortened: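 Each design's apparent KD comes from the median of binding-curve fits to its normalised clusters. Those clusters carried RNA switches transcribed on-chip from Illumina sequencing clusters. SNAP-549-labelled MS2 coat protein was titrated onto them in twofold steps (0.7 or 1.5 nM to 3 µM; per step 0.8–1.5 h down to 10–20 min). Conditions were 100 mM Tris-HCl pH 7.5, 80 mM KCl, 4 mM MgCl2, without or with constant ligand.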

[3] = Eterna round: R95, input ligand: FMN 200 uM
[4] = Eterna round: R95, input ligand: microRNA oligo, concentration not stated
[5] = Eterna round: R95, input ligand: none
[6] = input ligand: microRNA oligo, concentration not stated
[7] = input ligand: theophylline 20 uM
[8] = input ligand: tryptophan 2.4 mM
[9] = input ligand: theophylline 2 mM

Sequence | apparent KD of MS2 coat protein (MS2 coat protein [1]; [3]) [nM] | apparent KD of MS2 coat protein (MS2 coat protein [1]; [4]) [nM] | apparent KD of MS2 coat protein (MS2 coat protein [1]; [5]) [nM] | apparent KD of MS2 coat protein (MS2 coat protein [1]; input ligand: FMN 200 uM) [nM] | apparent KD of MS2 coat protein (MS2 coat protein [1]; [6]) [nM] | apparent KD of MS2 coat protein (MS2 coat protein [1]; input ligand: none) [nM] | apparent KD of MS2 coat protein (MS2 coat protein [2]; input ligand: arginine 13.2 mM) [nM] | apparent KD of MS2 coat protein (MS2 coat protein [2]; [7]) [nM] | apparent KD of MS2 coat protein (MS2 coat protein [2]; [8]) [nM] | apparent KD of MS2 coat protein (MS2 coat protein [2]; input ligand: none) [nM] | apparent KD of MS2 coat protein (MS2 coat protein [2]; [9]) [nM]
AAAACACAUGAGGAUCACCCAUGUACCAGGUACAUAGGAUAUCCAGGCGCCAAAUAGCGCGGAGAAGGAUGGAAAA [Radireatdi] (puzzle: Same State 1) | 78.2 | 237 | 1760 | – | – | – | – | – | – | – | –
AAAAUAAGCCCUUGCACAUGAGGAUCACCCAUGUUCGGUUCACAGGAUAUCUAGUCAAACGGGCUGGAGAAGGGUGGCAAGGAC [Xequusceus] (Eterna round: R96, puzzle: Same State NG 3) | – | – | – | 67.7 | 278 | 227 | – | – | – | – | –
AAAAUACAUGAGGAUCACCCAUGUAGAAACUACACAGGAUAUCGGACGGCUGUAGCCAAACGAGAAGGGUGAACCC [Ramazaza] (puzzle: Same State 1) | 90.8 | 60.8 | 92 | – | – | – | – | – | – | – | –
AAAAUGGGAUUUUACAUGAGGAUCACCCAUGUGGGUAUCACUGAGGAUAUGAGGAUCUUGAAAAAUCAGAAGGCAGAAUUUCAA [AK SSNG3-V2-21] (Eterna round: R96, puzzle: Same State NG 3) | – | – | – | 410 | 288 | 329 | – | – | – | – | –
UGUAACAUGAGGAUCACCCAUGUAAGUGAUACCAGAUAAGUAGUAGUCCCUUGGCAGCAUAUUGGGCAAGUGUAUAGUCUAUACG [Same State - Theophylline A (Freestyle 6)] | – | – | – | – | – | – | 43 | 65.3 | 48.3 | – | –
UGUACAGACAUCGAAUUCCUAUGUGCUGAAGGAGCGUCGUUGACGACAGGUAGGUCGCAGUUAACAUGAGGAUCACCCAUGUACA [Arg A Ex t5] | – | – | – | – | – | – | 45.8 | 82.3 | 77.5 | 85.8 | 119
UGUACCUAGUCGGCCGCCACUCAAUAAUGAGAGGAUCACCCUCAUAAACGAGUCAAAGACUCGAUGAGGACCGGGACUAGGUACU [Palindromic MS2 2 #AlternativeMS2 #Palindrome #StaticStem] | – | – | – | – | – | – | 59.4 | 73.2 | 21.1 | 53 | 72.7
UGUAUGUGAUCUGAUACCAGCGAUGAUAACCUGAGGAUCACCCUGGUAUGGCGAAAGCCUCGCCCUUGGCAGCAGAUCGCAUACU | – | – | – | – | – | – | 184 | 402 | 1210 | 747 | 30.7
UGUAUGUGAUCUGAUACCAGUCCAACUGGUAAAGCAUGAGGAACACCCAUGCAAAAUUGGGACCCUUGGCAGCAGAUCGCAUACU | – | – | – | – | – | – | 169 | 255 | 278 | 247 | 34.6
UGUAUGUGAUCUGAUACCAGUCCAACUGGUAAAUCAUGAGGAUCACCCAUGGAAAAUUGGGACCCUUGGCAGCAGAUCGCAUACU | – | – | – | – | – | – | 94.1 | 490 | 1070 | 452 | 38.1
UGUAUGUGAUGUGAUACCAGUCCAAUACUGGUAACAUGAGGAUCACCCAUGUAAUGAUGGGACCCUUGGCAGCACAUCGCAUACU [ThBS] | – | – | – | – | – | – | 175 | 347 | 242 | – | –
UGUUUGGUGCGCGAGUGUUGGAUAAUUGAUACCAGUGUAGAUGUGCGCCCUUGGCAGCGAAUCCUAACAUGAGGAUCACCCAUGU [5.Y] | – | – | – | – | – | – | 38.2 | 59.5 | 41.8 | – | –
UGUUUUUAUCGAAGGAGCGCCGCAUGAGGAUCACCCAUGCACAUGAGGAUCACCCAUGUCUGGCAGGUAGGUCGCGAUCAAUGGG [Same State Arginine B GF 11] | – | – | – | – | – | – | 33.7 | 48.7 | 44.3 | 41.9 | 47.9
UUAACAUGAGGAUCACCCAUGUUUGAUGAAGGAGCGACCAGAGGGUCAGGUAGGUCGCAUCACAUGAGGAUCACCCAUGUCGCCC [DOUBLE!!! :-D #13] | – | – | – | – | – | – | 22.3 | 26 | 22.4 | 21.8 | 25.8
UUAAGAGGCUAUCAAAUUUGAUUUUGUGAUACCAGAAUAAUUUUAUUCCCUUGGCAGCAUGACAUGAGGAUCACCCAUGUGUCUU [SSTheo A #2] | – | – | – | – | – | – | 33.8 | 40.2 | 34.6 | – | –
UUAAUCUUAUAUGAAAACAUAUAAGCAGAAGGAGCGUGAUAAAACACAGGUAGGUCGCUGAAGGGAACAUGAGGAUCACCCAUGU [AstrosSSArgA#4] | – | – | – | – | – | – | 22.7 | 33.8 | 28.4 | 22.4 | 30.6
UUACCGUAAGGUAUACCGGUCCACAAUAAUCGAGGACCGGUACGGCCGCCACUCGAUGUGUGAUCACAUGAGGAUCACCCAUGUA [Tryptophan A 20] | – | – | – | – | – | – | 99.4 | 460 | – | – | 562
UUAUAAGUACCGGUCCUCAGAUCCUCAUGACGAGGACCGGUACGGCCGCCACUCGAAACAUGAGGAUCACCCAUGUAAUAACAUU [Brourdmod19] | – | – | – | – | – | – | 18.9 | 28.8 | – | – | 25.6

Sequence | apparent KD of MS2 coat protein (MS2 coat protein [1]; [3]) [nM] | apparent KD of MS2 coat protein (MS2 coat protein [1]; [4]) [nM] | apparent KD of MS2 coat protein (MS2 coat protein [1]; [5]) [nM] | apparent KD of MS2 coat protein (MS2 coat protein [1]; input ligand: FMN 200 uM) [nM] | apparent KD of MS2 coat protein (MS2 coat protein [1]; [6]) [nM] | apparent KD of MS2 coat protein (MS2 coat protein [1]; input ligand: none) [nM] | apparent KD of MS2 coat protein (MS2 coat protein [2]; input ligand: arginine 13.2 mM) [nM] | apparent KD of MS2 coat protein (MS2 coat protein [2]; [7]) [nM] | apparent KD of MS2 coat protein (MS2 coat protein [2]; [8]) [nM] | apparent KD of MS2 coat protein (MS2 coat protein [2]; input ligand: none) [nM] | apparent KD of MS2 coat protein (MS2 coat protein [2]; [9]) [nM]
UUAUAAGUACCGGUCCUCAGAUCCUCAUGACGAGGACCGGUACGGCCGCCACUCGAAACAUGAGGAUCACCCAUGUAAUAAUAUC [Brourdmod09] | – | – | – | – | – | – | 20.6 | 56.6 | – | – | 59.3
UUAUAUACUACGGCCGCCACUGAACAUGAGGAUCACCCAUGUAAUGUUCAGAUUUUUUUUUUUUACAGGACCGGGUAGAAUUAAA [Tryptophan B 2] | – | – | – | – | – | – | 67.9 | 127 | – | – | 206
UUAUUUAACGGAAGGAGCGCGGAAUAAUAAGUGGGUAAACAUGAGGAUCACCCAUGUAAACCGCAGGUAGGUCGCCGAUAUUUAU [AstrosEXyARgB#3] | – | – | – | – | – | – | 66.2 | 88.9 | 74.7 | 79.3 | 98.1
UUCAGCUAGUCGGCCGCCACUACCUGAGGAUCACCCUGGUAGGUCCACACUGCUUCGGCAGUGAGUAGGACCGGGACUAGCUGAG | – | – | – | – | – | – | 18.3 | 25.2 | 52.7 | 23.2 | 19
UUCAUGAGGAUUGAUACCAGCCACCAACAUGAGGAACUUACAUGAGGAUCACCCAUGUGAGGCCCUUGGCAGCAAGCAUACAUGA [Exclusion Theophylline B 3] | – | – | – | – | – | – | 10.1 | 16.7 | 11.5 | 10.6 | 48.5
UUGCCCAGUACGGCCGCCACUGUGUGCAGGGAGCCCAGGUCCACAUGAGGAUCACCCAUGUACAACAGGACCGGGUACUUGCAAU [Usdizaqu] | – | – | – | – | – | – | 7.54 | 12.7 | – | – | 11.8
UUGGGUUUGCGAAGGAGCGGGAAAUAUAUAUAUAUAAUCCUAACAUGAGGAUCACCCAUGUCCCAGGUAGGUCGCGCGGGUUUGG [12.M] | – | – | – | – | – | – | 42 | 61.9 | 51.2 | 59.5 | 54.3
UUGGGUUUGUGAAGGAGCGGGAAAGUUAUAUAGUUAAUCCUAACAUGAGGAUCACCCAUGUCCCAGGUAGGUCGCGCGGGUUUGG [12.P] | – | – | – | – | – | – | 32.7 | 60.6 | 47.3 | 47.5 | 55
UUGGGUUUGUGAAGGAGCGGGAAAGUUUUAUAGUGAAUCCUAACAUGAGGAUCACCCAUGUCCCAGGUAGGUCGCGCGGGUUUGG [12.Q] | – | – | – | – | – | – | 240 | 115 | 80.8 | 134 | 144
UUGGUACGACAGCUCAUAUAAGCAUGUGAUACCAGACUGGAAACAGUCCCUUGGCAGCACUUUACAUGAGGAUCACCCAUGUCGG [EThA NP+V+V2 #3 +-Same Structure] | – | – | – | – | – | – | 76.6 | 201 | 212 | – | –
UUGUUGUUUGGAAGGAGCGUGGAUGAGUGUGGACAUGAGGAUCACCCAUGUUGGAUGAUACCGCAGGUAGGUCGCCGGGUGGUGG [11.aD] | – | – | – | – | – | – | 89.7 | 162 | 75.9 | 164 | 300
UUUAGUCAAUCGGCCGCCACUGACAUGAGGAUCACCCAUGUAGGUAAGGAUCAACCUCGAAAGUACAGGACCGGGAUUCGCCUCU [theeternabot_exclusion_MS2_Trp_B_45] | – | – | – | – | – | – | 51.7 | 67.6 | – | – | 65
UUUAUAUAGACGGCCGCCACUGGAAUUAAUACAUGAGGAUCACCCAUGUAUAGAGAAUAAUAAUACAGGACCGGGUCUUCAUGAU [SS Tryp B Tesla 1.1] | – | – | – | – | – | – | 28.3 | 34.2 | – | – | 33.7
UUUGACGGCGAUCUGGGUUUACCAGAUCGGCGAGGACCGGUACGGCCGCCACUCGUGUUUCUUUGACAUGAGGAUCACCCAUGUA [whbob_SS_trypto A_f2] | – | – | – | – | – | – | 38.4 | 57.3 | – | – | 60.5
UUUGAUAGGACAGAUACCAGCGUGUUAUAAAACAUGAGGAUCACCCAUGUAGUGAUCAAGCGCCCUUGGCAGCUGGUUUGUUAGG [7.J] | – | – | – | – | – | – | 73.5 | 220 | 207 | – | –
UUUGAUAGGACAGAUACCAGCGUGUUGUAGAACAUGAGGAUCACCCAUGUAGUGAUCAAGCGCCCUUGGCAGCUGGUUUGUUAGG [7.L] | – | – | – | – | – | – | 184 | 350 | 363 | – | –
UUUUAGCAUCGAAGGAGCGCUGGUGAAACUGACUAUGGAACAUGAGGAUCACCCAUGUGCUAGCAGGUAGGUCGCGAUGCUAUUU [SSAB NP+V+V2 #10] | – | – | – | – | – | – | 16.9 | 20.7 | 14.9 | 17.6 | 18.1
UUUUUUAUCAUGGCGUAUCGGAAAACCGAUACCAGUACAGAAAUGUACCCUUGGCAGCGGCGUUUUACAUGAGGAUCACCCAUGU [Ex Theophylline A 4] | – | – | – | – | – | – | 15.1 | 23.7 | 14.9 | – | –
